Patent US20190144884A1 (University of Pennsylvania, published 2019)

Target: the molecule itself
Experiment: native gel, in-gel butyrylcholinesterase activity staining of mouse serum (self-association: dimer, tetramer)

B1: human butyrylcholinesterase (hBChE) expressed from AAV8.UbC.hIL2.BChE C1.IRES.PRIMA1.SV40 vector (enzyme)
chain: HTEDDIIIATKNGKVRGMNLTVFGGTVTAFLGIPYAQPPLGRLRFKKPQSLTKWSDIWNATKYANSCCQNIDQSFPGFHGSEMWNPNTDLSEDCLYLNVWIPAPKPKNATVLIWIYGGGFQTGTSSLHVYDGKFLARVERVIVVSMNYRVGALGFLALPGNPEAPGNMGLFDQQLALQWVQKNIAAFGGNPKSVTLFGESAGAASVSLHLLSPGSHSLFTRAILQSGSFNAPWAVTSLYEARNRTLNLAKLTGCSRENETEIIKCLRNKDPQEILLNEAFVVPYGTPLSVNFGPTVDGDFLTDMPDILLELGQFKKTQILVGVNKDEGTAFLVYGAPGFSKDNNSIITRKEFQEGLKIFFPGVSEFGKESILFHYTDWVDDQRPENYREALGDVVGDYNFICPALEFTKKFSEWGNNAFFYYFEHRSSKLPWPEWMGVMHGYEIEFVFGLPLERRDNYTKAEEILSRSIVKRWANFAKYGNPNETQNNSTSWPVFKSTEQKYLTLNTESTRIMTKLRAQQCRFWTSFFPKVLEMTGNIDEAEWEWKAGFHRWNNYMMDWKNQFNDYTSKKESCVGL
notes: Secreted into the serum of vector-injected RAG KO mice; also called hBuChE; Hu BChE
binding result: binds
